Reference: US5925558

What was measured:
[1] = target: GFP phosphorylation mutant 155KRKSGI (Aequorea victoria); conditions: scale: relative rate
[2] = target: GFP phosphorylation mutant 172RRGSV (Aequorea victoria); conditions: scale: relative rate
[3] = target: GFP phosphorylation mutant 214KRDSM (Aequorea victoria); conditions: scale: relative rate
[4] = target: GFP phosphorylation mutant 25RRFSV (Aequorea victoria); conditions: scale: relative rate
[5] = target: GFP phosphorylation mutant 68RRFSA (Aequorea victoria); conditions: scale: relative rate
[6] = target: GFP N-terminal phosphorylation mutant 1MRKGSCLF (Aequorea victoria); conditions: scale: relative rate
[7] = target: GFP N-terminal phosphorylation mutant 1MRKGSLLF (Aequorea victoria); conditions: scale: relative rate
[8] = target: GFP N-terminal phosphorylation mutant 1MRRDSCLF (Aequorea victoria); conditions: scale: relative rate
[9] = target: GFP N-terminal phosphorylation mutant 1MRRESLLF (Aequorea victoria); conditions: scale: relative rate
[10] = target: GFP N-terminal phosphorylation mutant 1MSKRRDSL (Aequorea victoria); conditions: scale: relative rate
[11] = target: GFP N-terminal phosphorylation mutant 1MSRRDSCF (Aequorea victoria); conditions: scale: relative rate
[12] = target: wild-type Aequorea green fluorescent protein (Aequorea victoria); conditions: scale: relative rate
[13] = target: GFP N-terminal phosphorylation mutant -1… (Aequorea victoria)
[14] = target: GFP N-terminal phosphorylation mutant -2… (Aequorea victoria)
[15] = target: GFP N-terminal phosphorylation mutant -3… (Aequorea victoria)
[16] = target: GFP N-terminal phosphorylation mutant 1MRRRRSII (Aequorea victoria)
[17] = target: GFP N-terminal phosphorylation mutant 1MSRRRRSI (Aequorea victoria)

For “protein kinase A catalytic subunit (enzyme)”, the Relative rates of phosphorylation (32P incorporation) [1] was 2.5, the Relative rates of phosphorylation (32P incorporation) [2] was 1.57 and the Relative rates of phosphorylation (32P incorporation) [3] was 1.88. The Relative rates of phosphorylation (32P incorporation) [4] was 1.75, the Relative rates of phosphorylation (32P incorporation) [5] was 0.6 and the Relative rates of phosphorylation (32P incorporation) [6] was 5.1. The Relative rates of phosphorylation (32P incorporation) [7] was 1.6, the Relative rates of phosphorylation (32P incorporation) [8] was 3.7 and the Relative rates of phosphorylation (32P incorporation) [9] was 3. It also gave a Relative rates of phosphorylation (32P incorporation) [10] of 5.5, a Relative rates of phosphorylation (32P incorporation) [11] of 2.1 and a Relative rates of phosphorylation (32P incorporation) [12] of 1. The % Change in fluorescence upon phosphorylation [13] was 43%, the % Change in fluorescence upon phosphorylation [14] was 15% and the % Change in fluorescence upon phosphorylation [15] was 70%. The % Change in fluorescence upon phosphorylation [16] was 70% and the % Change in fluorescence upon phosphorylation [17] was 40%.
